Measurements as given in paper PMC4018761.

How the values were obtained:
[1] = molecular target: GST-E2 300-360 (Epstein-Barr virus) (UniProt P12978); test: pull-down
[2] = molecular target: GST-E2 335-360 (Epstein-Barr virus) (UniProt P12978); test: pull-down

“endogenous PRMT5 (protein arginine methyltransferase 5) (from UniProt O14744 1-637) (enzyme)” was tested, and the percent of endogenous PRMT5 pulled down [1] was 5% and the percent of endogenous PRMT5 pulled down [2] was 5%.
